According to article PMC10696041 (2023):

B1: MBP-CUB1CUB2 domains of PCPE-2, WT [human] / bone morphogenetic protein-1 [human] (parent complex)
chain 1: QSPERPVFTCGGILTGESGFIGSEGFPGVYPPNSKCTWKITVPEGKVVVLNFRFIDLESDNLCRYDFVDVYNGHANGQRIGRFCGTFRPGALVSSGNKMMVQMISDANTAGNGFMAMFSAAEPNERGDQYCGGLLDRPSGSFKTPNWPDRDYPAGVTCVWHIVAPKNQLIELKFEKFDVERDNYCRYDYVAVFNGGEVNDARRIGKYCGDSPPAPIVSERNELLIQFLSDLSLTADGFIGHYIFRPK
chain 2: AATSRPERVWPDGVIPFVIGGNFTGSQRAVFRQAMRHWEKHTCVTFLERTDEDSYIVFTYRPCGCCSYVGRRGGGPQAISIGKNCDKFGIVVHELGHVVGFWHEHTRPDRDRHVSIVRENIQPGQEYNFLKMEPQEVESLGETYDFDSIMHYARNTFSRGIFLDTIVPKYEVNGVKPPIGQRTRLSKGDIAQARKLYKCPACGETLQDSTGNFSSPEYPNGYSAHMHCVWRISVTPGEKIILNFTSLDLYRSRLCWYDYVEVRDGFWRKAPLRGRFCGSKLPEPIVSTDSRLWVEFRSSSNWVGKGFFAVYEAICGGDVKKDYGHIQSPNYPDDYRPSKVCIWRIQVSEGFHVGLTFQSFEIERHDSCAYDYLEVRDGHSESSTLIGRYCGYEKPDDIKSTSSRLWLKFVSDGSINKAGFAVNFFKEVDECSRPNRGGCEQRCLNTLGSYKCSCDPGYELAPDKRRCEAACGGFLTKLNGSITSPGWPKEYPPNKNCIWQLVAPTQYRISLQFDFFETEGNDVCKYDFVEVRSGLTADSKLHGKFCGSEKPEVITSQYNNMRVEFKSDNTVSKKGFKAHFFSEKRPALQPPRGRPHQLKFRVQKRNRTPQ

Variants of: B1
Experiment: SPR; 50 nM MBP-CUB1CUB2; immobilized BMP-1 (1302 and 1492 RU); parent: 100; read off a plot

percent of parent | Variant
~90 % binding / WT | chain 1 QSPERPVFTCGGILTGESGFIGSEGFPGVYPPNSKCTWKITVPEGKVVVLNFRFIDLESDNLCRYDFVDVYNGHANGQRIGRFCGTFRPGALVSSGNKMMVQMISDANTAGNGFMAMFSAAEPNERGDQYCGGLLDRPSGSFKTPNWPDADYPAGVTCVWHIVAPKNQLIELKFEKFDVERDNYCRYDYVAVFNGGEVNDARRIGKYCGDSPPAPIVSERNELLIQFLSDLSLTADGFIGHYIFRPK [chain 1 R150A]
~84 % binding / WT | chain 1 QSPERPVFTCGGILTGESGFIGSEGFPGVYPPNSKCTWKITVPEGKVVVLNFRFIDLESDNLCRYDFVDVYNGHANGQRIGRFCGTARPGALVSSGNKMMVQMISDANTAGNGFMAMFSAAEPNERGDQYCGGLLDRPSGSFKTPNWPDRDYPAGVTCVWHIVAPKNQLIELKFEKFDVERDNYCRYDYVAVFNGGEVNDARRIGKYCGDSPPAPIVSERNELLIQFLSDLSLTADGFIGHYIFRPK [chain 1 F87A]
